B1: knob-(VPGIG)96Y (SEQ ID. NO: 9) (protein)
chain: VPGIGVPGIGVPGIGVPGIGVPGIGVPGIGVPGIGVPGIGVPGIGVPGIGVPGIGVPGIGVPGIGVPGIGVPGIGVPGIGVPGIGVPGIGVPGIGVPGIGVPGIGVPGIGVPGIGVPGIGVPGIGVPGIGVPGIGVPGIGVPGIGVPGIGVPGIGVPGIGVPGIGVPGIGVPGIGVPGIGVPGIGVPGIGVPGIGVPGIGVPGIGVPGIGVPGIGVPGIGVPGIGVPGIGVPGIGVPGIGVPGIGVPGIGVPGIGVPGIGVPGIGVPGIGVPGIGVPGIGVPGIGVPGIGVPGIGVPGIGVPGIGVPGIGVPGIGVPGIGVPGIGVPGIGVPGIGVPGIGVPGIGVPGIGVPGIGVPGIGVPGIGVPGIGVPGIGVPGIGVPGIGVPGIGVPGIGVPGIGVPGIGVPGIGVPGIGVPGIGVPGIGVPGIGVPGIGVPGIGVPGIGVPGIGVPGIGVPGIGVPGIGVPGIGVPGIGVPGIGY
B2: knob-(VPGSG)96Y (SEQ ID. NO: 8) (protein)
chain: VPGSGVPGSGVPGSGVPGSGVPGSGVPGSGVPGSGVPGSGVPGSGVPGSGVPGSGVPGSGVPGSGVPGSGVPGSGVPGSGVPGSGVPGSGVPGSGVPGSGVPGSGVPGSGVPGSGVPGSGVPGSGVPGSGVPGSGVPGSGVPGSGVPGSGVPGSGVPGSGVPGSGVPGSGVPGSGVPGSGVPGSGVPGSGVPGSGVPGSGVPGSGVPGSGVPGSGVPGSGVPGSGVPGSGVPGSGVPGSGVPGSGVPGSGVPGSGVPGSGVPGSGVPGSGVPGSGVPGSGVPGSGVPGSGVPGSGVPGSGVPGSGVPGSGVPGSGVPGSGVPGSGVPGSGVPGSGVPGSGVPGSGVPGSGVPGSGVPGSGVPGSGVPGSGVPGSGVPGSGVPGSGVPGSGVPGSGVPGSGVPGSGVPGSGVPGSGVPGSGVPGSGVPGSGVPGSGVPGSGVPGSGVPGSGVPGSGVPGSGVPGSGVPGSGVPGSGVPGSGY
B3: (VPGSG)96 (SEQ ID. NO: 13) (protein)
chain: VPGSGVPGSGVPGSGVPGSGVPGSGVPGSGVPGSGVPGSGVPGSGVPGSGVPGSGVPGSGVPGSGVPGSGVPGSGVPGSGVPGSGVPGSGVPGSGVPGSGVPGSGVPGSGVPGSGVPGSGVPGSGVPGSGVPGSGVPGSGVPGSGVPGSGVPGSGVPGSGVPGSGVPGSGVPGSGVPGSGVPGSGVPGSGVPGSGVPGSGVPGSGVPGSGVPGSGVPGSGVPGSGVPGSGVPGSGVPGSGVPGSGVPGSGVPGSGVPGSGVPGSGVPGSGVPGSGVPGSGVPGSGVPGSGVPGSGVPGSGVPGSGVPGSGVPGSGVPGSGVPGSGVPGSGVPGSGVPGSGVPGSGVPGSGVPGSGVPGSGVPGSGVPGSGVPGSGVPGSGVPGSGVPGSGVPGSGVPGSGVPGSGVPGSGVPGSGVPGSGVPGSGVPGSGVPGSGVPGSGVPGSGVPGSGVPGSGVPGSGVPGSGVPGSGVPGSGVPGSG
B4: G(VPGSG)48(VPGIG)48Y (SEQ ID. NO: 10) (protein)
chain: GVPGSGVPGSGVPGSGVPGSGVPGSGVPGSGVPGSGVPGSGVPGSGVPGSGVPGSGVPGSGVPGSGVPGSGVPGSGVPGSGVPGSGVPGSGVPGSGVPGSGVPGSGVPGSGVPGSGVPGSGVPGSGVPGSGVPGSGVPGSGVPGSGVPGSGVPGSGVPGSGVPGSGVPGSGVPGSGVPGSGVPGSGVPGSGVPGSGVPGSGVPGSGVPGSGVPGSGVPGSGVPGSGVPGSGVPGSGVPGSGVPGIGVPGIGVPGIGVPGIGVPGIGVPGIGVPGIGVPGIGVPGIGVPGIGVPGIGVPGIGVPGIGVPGIGVPGIGVPGIGVPGIGVPGIGVPGIGVPGIGVPGIGVPGIGVPGIGVPGIGVPGIGVPGIGVPGIGVPGIGVPGIGVPGIGVPGIGVPGIGVPGIGVPGIGVPGIGVPGIGVPGIGVPGIGVPGIGVPGIGVPGIGVPGIGVPGIGVPGIGVPGIGVPGIGVPGIGVPGIGY
B5: (VPGIG)96 (SEQ ID. NO: 14) (protein)
chain: VPGIGVPGIGVPGIGVPGIGVPGIGVPGIGVPGIGVPGIGVPGIGVPGIGVPGIGVPGIGVPGIGVPGIGVPGIGVPGIGVPGIGVPGIGVPGIGVPGIGVPGIGVPGIGVPGIGVPGIGVPGIGVPGIGVPGIGVPGIGVPGIGVPGIGVPGIGVPGIGVPGIGVPGIGVPGIGVPGIGVPGIGVPGIGVPGIGVPGIGVPGIGVPGIGVPGIGVPGIGVPGIGVPGIGVPGIGVPGIGVPGIGVPGIGVPGIGVPGIGVPGIGVPGIGVPGIGVPGIGVPGIGVPGIGVPGIGVPGIGVPGIGVPGIGVPGIGVPGIGVPGIGVPGIGVPGIGVPGIGVPGIGVPGIGVPGIGVPGIGVPGIGVPGIGVPGIGVPGIGVPGIGVPGIGVPGIGVPGIGVPGIGVPGIGVPGIGVPGIGVPGIGVPGIGVPGIGVPGIGVPGIGVPGIGVPGIGVPGIGVPGIGVPGIGVPGIGVPGIG

Assays:
[1] = Temperature-dependent optical density (turbidity) of ELP fusion peptides; assay type: physicochemical; conditions: for phase transition behaviour in optical density over temperature gradient: monoblock knob-ELPs, single increase in optical density; for Critical aggregation temperature: optical density at 350 nm by UV-Vis spectrophotometer
Description: (§1) To explore the temperature-dependent phase behavior of the ELPs, optical density and hydrodynamic radius were observed over a range of temperatures. Knob-S96, S48148 and knob-S48148 were diluted to 25 μM in PBS on ice and the absorbance at 350 nm was monitored with a DU800 UV-Vis spectrophotometer (Beckman Coulter, Brea, Calif.) at a temperature gradient of 1° C./minute. […] Then 90 μL sample of was transferred into a 384 well microplate and covered with 20 μL mineral oil. The microplate and mineral oil were pre-chilled at 4° C. at least for 1 hour. The microplate was centrifuged at 4° C. to remove air bubbles from samples before and after addition of mineral oil. Then the sample was measured in a DynaPro plate reader (Wyatt Inc., Santa Barbara, Calif.) at temperature intervals of 1° C. The resulting hydrodynamic radii were collected and analyzed by Dynamics (Wyatt Inc., Santa Barbara, Calif.).

[2] = Dynamic light scattering of ELP nanoparticles; assay type: physicochemical; conditions: for Hydrodynamic radius (nm) at 37° C.: 25 μM in PBS; for formation of nanoparticles: ELP without knob, S96 and I96 data not shown
Description: as §1

[3] = system: transformed mouse hepatocytes; assay: Live cell uptake of rhodamine-conjugated ELP/knob-ELP in hepatocytes; assay type: cell-based; conditions: 10 μM rhodamine-labeled, 30 minutes at 37° C., confocal microscopy, LYSOTRACKER green
Description: To track cellular uptake, the ELPs S48148 and knob-S48148 were conjugated with a detectable label, NHS-Rhodamine (Thermo Fisher Scientific Inc, Rockford, Ill.) via covalent modification of primary amines at the amino end of the peptide. For S48148, the only available amine is at the amino terminus; however, knob-S48148 has an additional 11 lysine residues that may be sites of modification. The conjugation was performed in 100 mM borate buffer for 2 hours at 4° C., and the conjugated ELP was separated by size exclusion chromatography on a PD10 desalting column (GE Healthcare, Piscataway, N.J.).
To observe uptake into mouse hepatocytes, cells were cultured on 35 mm glass coverslip-bottomed dishes with medium [(DMEM (4.5 g/L) containing 10% fetal bovine serum, g/ml insulin, and 0.02 [μg/ml epidermal growth factor]. Uptake studies were conducted when hepatocytes reached 70% confluence. After washing with warm fresh medium, hepatocytes were cultured in medium containing 10 μM of either S48148 or knob-S48148 conjugated with rhodamine, and 75 nM LYSOTRACKER® green. After 30 minutes incubation at 37° C., the cells were rinsed with warm fresh medium to remove the free knob-ELP/ELP in the medium. Next cells were incubated with 75 nM LYSOTRACKER® green in a 37° C. incubation chamber. […]

Molecule	phase transition behaviour in optical density over temperature gradient [1]	Hydrodynamic radius (nm) at 37° C. ([2]; dynamic light scattering) [nm]	Critical aggregation temperature ([1]; 25 μM in PBS) [°C]	formation of nanoparticles [2]	other results
B1	phase-separates near room temperature	–	–	–	–
B2	well above physiological conditions	5.3	68.2	–	–
B3	–	–	–	do not form nanoparticles	–
B4	–	23.7	26.5	form nanoparticles at physiological temperatures	size by dynamic light scattering (BSA; unimers of the ELPs) ([2]; BSA stable from 10 to 37° C., ELPs as unimers below assembly temperature): around 4 nm; critical nanoparticle temperature (CNT) ([2]; dynamic light scattering): 26.5 °C; hydrodynamic diameter of nanoparticles ([2]; dynamic light scattering, self-assembled nanoparticles): around 40 nm; cellular uptake / fluorescence localisation [3]: slightly more intense fluorescence on the cell surface; Transition Temperature T1 ([1]; first phase transition, optical density, 25 μM in PBS): 26.5 °C; Transition Temperature T2 ([1]; second phase transition, optical density, 25 μM in PBS): 75 °C
B5	–	–	–	do not form nanoparticles	–

— US11224662B2, “Methods and therapeutics comprising ligand-targeted ELPs” (priority 2012, dated 2022)
